How the values were obtained:
[1] = biological target: CTLA-4-Ig(G1) (Repligen, Inc.) (UniProt P16410); test: IGEN ECL bead assay, CTLA-4-Ig(G1) against CD28-Ig(G1), antibody 1 ug/ml
[2] = biological target: CTLA-4-Ig(G1) (Repligen, Inc.) (UniProt P16410); test: IGEN ECL bead assay, CTLA-4-Ig(G1) against B7.2-Ig(G1), antibody 1 ug/ml

selectivity ratio CTLA4/CD28 [1]: > 500 :1
selectivity ratio CTLA4/B7.2 [2]: > 500 :1
B1: 4.10.2 (antibody, human IgG2, V domains shown)
VH: QVQLVESGGGVVQPGRSLRLSCVASGFIFSSHGIHWVRQAPGKGLEWVAVIWYDGRNKDYADSVKGRFTISRDNSKNTLYLQMNSLRAEDTAVYYCARVAPLGPLDYWGQGTLVTVSS
VL: EFVLTQSPGTLSLSPGERATLSCRASQSISSNFLAWYQQKPGQAPRLLIYRPSSRATGIPDSFSGSGSGTDFTLTISRLEPEDFALYYCQQYGTSPFTFGPGTKVDIK
modifications: chain 1 pos 1: pyroglutamate from Gln (FIG. 9: NH2-Blocked, pQ), written Q

Reference: patent US20050287136A1
